Data taken from the DeepSol protein solubility set.

Experiment: soluble on expression in E. coli; label from the status in PepcDB or PDB records

Row | Sequence | soluble on expression in E. coli
1 | MSLSKDEELLQNYCSILFTYKTIGISNLHLYYFRETEIKSLKQLINAEFAILQTCNRVEIYLYSDTNTLKEVNKIIQYLNNIHNEPIGNQARVLCGKDAAKHLFLVASGADSLSIGEYEILSQIRSTIDMFKKLGFSGKYLQIFFERAIKVGRKVREETSISKGKVGIYSLAIDEAKKRFNDFYDRRILVIGAGEMAQKITSMLHNEGAKDVTIMNRTIEKAKQLALKFGYNYEKLDLDKLGNFDVAFISIYHENLRLENKWNTLIVDITVPPLFTGNNVITLEELERISNLNFKAREEELAKINKLVEDGINELLYDYKKEIYTEFMSKIMKREGHHHHHH | soluble
2 | MSLSHSEKDVHEMGRFLLSTIKGSILELAFSHGEVEGLSFEKKVTILEIEDLDLPTDRHDELDENQRLSVTLMFALGTFCSKFGSRNRKEETVTFFDEAWIFQSSPEGQKILKSMKRIGRSFNNFMVLITQSVNDVLDNGDGTGFGTVVCFDEVDNREGILRYLKLPVNEINLKWVSNMIQGQCLMKDMFNQVNRIVIDVIFEEWLELFETVDEGHHHHHH | not soluble
3 | MPIGNLGHNPNVNNSIPPAPPLPSQTDGAGGRGQLINSTGPLGSRALFTPVRNSMADSGDNRASDVPGLPVNPMRLAASEITLNDGFEVLHDHGPLDTLNRQIGSSVFRVETQEDGKHIAVGQRNGVETSVVLSDQEYARLQSIDPEGKDKFVFTGGRGGAGHAMVTVASDITEARQRILELLEPKGTGESKGAGESKGVGELRESNSGAENTTETQTSTSTSSLRSDPKLWLALGTVATGLIGLAATGIVQALALTPEPDSPTTTDPDAAASATETATRDQLTKEAFQNPDNQKVNIDELGNAIPSGVLKDDVVANIEEQAKAAGEEAKQQAIENNAQAQKKYDEQQAKRQEELKVSSGAGYGLSGALILGGGIGVAVTAALHRKNQPVEQTTTTTTTTTTTSARTVENKPANNTPAQGNVDTPGSEDTMESRRSSMASTSSTFFDTSSIGTVQNPYADVKTSLHDSQVPTSNSNTSVQNMGNTDSVVYSTIQHPPRDTTDNGARLLGNPSAGIQSTYARLALSGGLRHDMGGLTGGSNSAVNTSNNPPAPGSHRFV | not soluble
4 | MTIPFDHWPEWPQHSDRTRRKIEEVFQSNRWAISGYWTGEESMERKFAKAFADFNGVPYCVPTTSGSTALMLALEALGIGEGDEVIVPSLTWIATATAVLNVNALPVFVDVEADTYCIDPQLIKSAITDKTKAIIPVHLFGSMANMDEINEIAQEHNLFVIEDCAQSHGSVWNNQRAGTIGDIGAFSCQQGKVLTAGEGGIIVTKNPRLFELIQQLRADSRVYCDDSSELMHGDMQLVKKGDIQGSNYCLSEFQSAILLDQLQELDDKNAIREKNAMFLNDALSKIDGIKVMKRPPQVSRQTYYGYVFRFDPVKFGGLNADQFCEILREKLNMGTFYLHPPYLPVHKNPLFCPWTKNRYLKSVRKTEAYWRGLHYPVSERASGQSIVIHHAILLAEPSHLSLLVDAVAELARKFCVTH | soluble
5 | MGSDKIHHHHHHMNKQVNFDELEVGYDVPALPGMDEADIQTPCLVLDLDALERNIKKMGDYAREHGMRHRVHGKMHKSVDVAKLQEELGGACGVCCQKVSEAEVFARGGIKDVMVSNQVTDPQKIDRLARMPKFGARVLCCVDDPANVADLSAAAVKHGTQIEALVEIDCGAGRCGVTTTQEVVNIAKMIDAAEGLKFAGIQAYQGAMQHLDSYDERASKTQVAIDMVEDAIAGLKANGLECDIVGGGGTGSYYFESNSGAFNELQCGSYAFMDADYGRILDKDGKRIDDGEWENALFILTSVMSHAKADKAIVDAGLKAQSVDSGLATIYGRDDVEYVKCSDEHGVVMDPDGVLNVNDKLRLVPGHCDPTCNVHDWYVGVRGGKVETLWPVSARGKAY | not soluble
6 | MSLQLSNFLELERADTFENVERVQNAVATEQSYLDYIVQDWACWDDTYQFIEDKNPEYIRVDLQNQTLSGINVNVMIFVNNSGKVVYVKSVNTSTAEEAPVPRKLLAMIEDGGLLTEGENDSISGFVLLDEDPMFIACHPILTTKYEGPSRGTLIFGRYFDDALLESFKKVTRSSLLMYRADEEMPQDFQNKIKNFSQNSDNIVVDPLNKNQIAGYFGLKDIKGDIALILRADFPREGHHHHHH | soluble
7 | MGSDKIHHHHHHMKEVAIYIYMLAVKITGCLARIFPVKQKVVLLVSFPENSTAIIKQMNEMKVTPKTVVFYDPRVDVTGFNFDFIQLKPKKIKHFISLMFHLNTAKVVITDNYFVELAGLKERKNVTCIQIWHANGALKKFGWEDKAAQKRSARDKKRFQEVYRCFSKVLVGSDEMAAIFQRSFLLEDSHMLKLGIPRTDNFFNQQQLKENAERTNTKLHLSNKKKLLYAPTFRDEELHSTTLHLDIAKMKQALGNEYQLILKLHPSISNDLDEVVDDFVVYADKETPIETILPAVDILITDYSSIPFEFALLEKPMIFFTYDLEEYDKARGLSDGFLATIPGPFVHTTEELIQLIEQEAFDLEMVRAFAAKWNKYSDGHSSERFVSFLKEQLEK | not soluble
8 | MGSDKIHHHHHHMDFQEKIEELRKIIKDNIEPLITSDYVHLDNPYHGNIGDILIWEGERQFLSSIKYKCLQSSSNSWCENYLHPETVILFNGGGNFGDLYRECQDFRLRVIEQFPNNRIIMFPQSIWYEDESLIAKDAAVMARHNDLTLCARDKWSYNFLKEHFGKNKILLVPDMAFYISDEYLNKYRECVFWGQKLYLRRIDKEMDFSTILDDLRGFDIRDWPSLERRPICLLILRIMKRAAYYLQKITCLTVLQRFVNRLADEYAIRIVRPYLLKRGCDFISPYSEVITTRLHGLILSILFHKPVYYINNTTGKLSAYVDTWHLQDILEVSPYVDKILEKHVD | not soluble
9 | MGSDKIHHHHHHMETPRREAFRYHEVEQHVLRLIDSKQYPPGSRLPSLRAVARTLSASLATVCHAYEELERRGVVESRPRSGYYVRTLPSPLPVPHSAPAEEEEPREANRSRLIATVLEAVGNPQMAPFGVVSPDPSLLPGKKLGQILAELSRRNAEQCVAYETIAGNAEYRRQIAKRACEDGMPTRASEVVATTGAMEALYIALRVLTRPGDNVLIQSPTYYCFLQLLETLGLRAVEIPSDPKHGINPADLTKALSTFEVAACILSGNFNNPDGALTPDAAKREIVDILAARGIPLVDDDVSADLHFDAQRPASFKQYDKKGLVVFCSSFSKTIAPGYRAGWMLPGRFMEKALEVKATTNVCCATPTQAAVGEFMRLGLYDRQLKKLRSAFQTQICAMHECIGSAFPDGTRVTSPRGGGVLWVELPAAVNGVELFFKARARRVGIAPGSIFSTRDRFSNYIRLSCCGIWNPRMEEALRDLGRLARELT | not soluble
10 | MTTLRTLMAVSLVLNLAACGFKLRGQVSELPFERVYITAPAGLTIGSDLERVISTHTRAKVVNKAEKSEAIIQIVHAIREKRILSLSESGRVREFELVYRVAARLLDAHNAELASLQEIRLTRILPFLDAQELAKAAEEEMLYKDMQKDAVQQILRQVSAVTSAGLEHHHHHH | not soluble
11 | MMEERANLMHMMKLSIKVLLQSALSLGRSLDADHAPLQQFFVVMEHCLKHGLKVKKSFIGQNKSFFGPLELVEKLCPEASDIATSVRNLPELKTAVGRGRAWLYLALMQKKLADYLKVLIDNKHLLSEFYEPEALMMEEEGMVIVGLLVGLNVLDANLCLKGEDLDSQVGVIDFSLYLKDVQDLDGGKEHERITDVLDQKNYVEELNRHLSCTVGDLQTKIDGLEKTNSKLQEELSAATDRICSLQEEQQQLREQNELIRERSEKSVEITKQDTKVELETYKQTRQGLDEMYSDVWKQLKEEKKVRLELEKELELQIGMKTEMEIAMKLLEKDTHEKQDTLVALRQQLEEVKAINLQMFHKAQNAESSLQQKNEAITSFEGKTNQVMSSMKQMEERLQHSERARQGAEERSHKLQQELGGRIGALQLQLSQLHEQCSSLEKELKSEKEQRQALQRELQHEKDTSSLLRMELQQVEGLKKELRELQDEKAELQKICEEQEQALQEMGLHLSQSKLKMEDIKEVNQALKGHAWLKDDEATHCRQCEKEFSISRRKHHCRNCGHIFCNTCSSNELALPSYPKPVRVCDSCHTLLLQRCSSTAS | soluble
12 | DDSCQIGTSFTGLDMTKYVGTWYELFRTPNSDEEDFTNCEYDKYTLDENGVIQVTSVAYTNSIRGFITSTGTVPSWTEDTFDIAYGDDETWSSTYFMVGTDYQTYSIVAGCLDNDYSRHLYWIASHETSFDDATKAKVNEVLAPYNLSLDDMEPVDQSYCVQY | soluble
13 | MTEITHRTKTRPVKVGNLTIGGNNEVVVQSMTTTKTHDVEATVAEIKRLEEAGCQVVRVACPDMRAAEAIPAIKKQISIPLVVDIHFDYKLALKAIEGGADKIRINPGNIGKRHKVEAVVKAAKEKGIPIRIGVNAGSLEKRILDKYGYPTADGMVESALHHIKILEDLDFHDIIVSMKASDVNLAIEAYEKAAKAFDYPLHLGITESGTLFAGTVKSAAGLGAILNMGIGNTVRVSLSADPVEEVKVARELLKSFGLASNAATLISCPTCGRIEIDLISIANEMEEYISKIRAPIKVAVLGCAVNGPGEAREADIGIAGARGEGLLFRKGEIVRKVPEETMVEELKKEIDKIAEEYFAKQKELEKA | not soluble
14 | MGHHHHHHGGHMSLHSGSVEHCIKGRSRRAAPRSEHTGRMADIARKASAHWEGDLKSGNGTITTESGVLSQAQYSFKTRFENGKGTNPEELLASAHAGCFTMQLSALLAEHGHEIKALDTDATCEMVKDGPGFKINHMHLRVRAQLTGSDQADFEAHVKDAAEKCPLSRIMQGNVEVTHEAILEGEGGS | soluble
15 | TQYKYAWIINGLTKSTGETYIPTAADDGFNIRLEVTGQDAYGQVTEMQYVVYAFSKVETIFSDMYAFAALKTDGSVVTWGYSDYGGDSSSVAGQLTSGVKVIDSTSSAFAAIKEDGSVVTWGDSPYGGDSSSVAGKLTSGVKVIYSNSSAFAAVKQDGSVVTWGSYGGDSSSVAGQLTSGVKVIYSTDSEFGAFAAVKEDGSVVTWGNSPYGGDSSSVAGQLTSGVKVIYSTNNAFAAVKEDGSVVTWGDSGAGGDSSSVAGQLTSGVKVIYSTNNAFAAVKEDGSVVTWGGYGGDSSSVAGQLTSGVKVIYSTNNAFAAVKEDGSVVTWGDSGNGGDSSSVAGQLTSGVKVIDSTYSAFAAVKEDGSVVAWGNSGYGGDSSSVAGQLTSGVKVIDSTTSAFAVVKEDGSVVTWGGSFYGGDSSSVAGQLTSGVKVIYSTSSAFAVVKEDGSVVTWGGSFYGGDSSSVADKLAPNLFLIETSIN | not soluble
16 | MGSDKIHHHHHHMTLQFLGAAREVTGSCHLVTVAGKHLLLDCGLIQGGKADELRNHEPFVFDPQTIVAVVLSHAHIDHSGRLPLLVKAGFDGPIYTHKATAELCAIMLKDAAMLQVRDTERTNKKRAKHDLAPLEPLFTVEDAEQAISQFVSLEYGQVTRVIPHVDICLSDAGHILGSALVELWLGEGKSQKKIVFSGDLGRAGMPILQNPTLVDTADLVLMESTYGNRFHRSWTDTLAELKDIFAKTVNESQGNILLPAFSVGRAQELLYLFHLYAKEWDLGRWKICLDSPMAIEATRVYVNNYPLMDEDFKRFTRQHPGQHPLLSNVEFIQTTEESIALNEVHKGLIIIAGSGMCNGGRIRSHLEHNLWRSECDVIICGFQALGTPGRALVDGAKELTIHGNSVNVAAKLHTVGGLSAHADQAELLRWYRHFEEQPPLVLVHGEPEAQQGLVAVMNQDPKTKPKALAIATRGDMLDLTALPKLVWVTA | not soluble
17 | SPLPVALQTRLAKRGILKHLEPEPEEEIIAEDYDDDPVDYEATRLEGLPPSWYKVFDPSCGLPYYWNADTDLVSWLSPHDPNSVVTKSAKKLRSSNADAEEKLDRSHDKSDRGHDKSDRSHEKLDRGHDKSDRGHDKSDRDRERGYDKVDRERERDRERDRDRGYDKADREEGKERRHHRREELAPYPKSKKAVSRKDEELDPMDPSSYSDAPRGTWSTGLPKRNEAKTGADTTAAGPLFQQRPYPSPGAVLRANAEASRTKQQD | soluble
